Laboratory results taken from US20240374603A1, “PHARMACEUTICAL PREPARATION, PREPARATION METHOD THEREFOR AND USE THEREOF” (COHERENT BIOPHARMA (SUZHOU) LIMITED, priority 2021, published 2024).
*1 amine or outer side, *2 acyl side, *3 side chain or, on linkers, in order; H or OH if unused. Where a SMILES comes first, the peptide text is derived from it. Bridges are numbered along the chain shown (N, C = ends). Roman numbers before positions name the chains, in order. [ ]: non-standard residue; d: D form. The star is where a group is joined. ξ: configuration not given here. Hexanoyl(6-succinimido-3yl) = O=C1CC([*:1])C(=O)N1CCCCCC(=O)[*:2]; Pteroyl = Nc1nc2ncc(CNc3ccc(C(=O)*)cc3)nc2c(=O)[nH]1; Dolaproine(all-ξ) = COC(C(C)C(=O)[*:2])C1CCCN1[*:1]; X1 = CCC(C)C(C(CC(=O)[*:2])OC)N(C)[*:1]; γGlu = O=C(O)[CH](CCC(=O)[*:2])N[*:1]; PABC = O=C(OCc1ccc(N[*:1])cc1)[*:2]; Cit = NC(=O)NCCC[CH](N)C(=O)O; NMeV = CN[CH](C(=O)O)C(C)C; X2 = CC(N*)C(O)c1ccccc1

Columns and labels:
[1] = pH confirmation in freeze-dried form, stability at 30° C. for 1 month; format: physicochemical; details: pH range of 6.9 to 7.7, 30° C. for 1 month
Protocol: An aqueous solution containing LDC10B (5 mg/mL), mannitol (40 mg/mL), sucrose (10 mg/mL) and tromethamine (0.765 mg/mL) was prepared, and the pH was adjusted to 6.9, 7.3 and 7.7 with dilute hydrochloric acid, respectively; the resulting solutions were filtered and sub-packaged into vials, half of a stopper was pressed into the vial, freeze-drying was performed, and the vials were capped. The stability of each sample was investigated at 30° C. for 1 month.

[2] = Final prescription and process confirmation, stability at 25° C. and 40° C.; format: physicochemical; details: final prescription (Example 7); for % Moisture / % Total impurity / Re-dissolution time s: freeze-dried; for pH value: re-dissolution pH
Protocol: In view of the results of the prescription screening experiment, the prescription process confirmation experiment was carried out to investigate the stability of the final prescription.

For `CCC(C)C(C(CC(=O)N1CCCC1C(OC)C(C)C(=O)NC(C)C(O)c1ccccc1)OC)N(C)C(=O)C(NC(=O)C(C(C)C)N(C)C(=O)OCc1ccc(NC(=O)C(CCCNC(N)=O)NC(=O)C(NC(=O)CCCCCN2C(=O)CC(SCC(NC(=O)CCC(NC(=O)c3ccc(NCc4cnc5[nH]c(N)nc(=O)c5n4)cc3)C(=O)O)C(=O)NC(CCCCN)C(=O)NC(CCC(=O)O)C(=O)NC(Cc3ccccc3)C(=O)NC(CC(C)C)C(=O)NC(Cc3cnc[nH]3)C(=O)N3CCCC3C(=O)NC(CO)C(=O)NC(CCCCN)C(=O)NC(C(=O)NC(CC(=O)O)C(=O)NC(CC(C)C)C(=O)N3CCCC3C(=O)NC(CCCNC(=N)N)C(=O)O)C(C)C)C2=O)C(C)C)cc1)C(C)C` (stereo not shown) [LDC10B] (I: {Pteroyl-γGlu}-CKEFLHPSKVDLPR-OH / II: V[Cit][PABC][NMeV]V[X1][Dolaproine(all-ξ)]-X2; linker I:1-II:N via Hexanoyl(6-succinimido-3yl); configuration not given here), the “quality of the freeze-dried preparation” value [1] was “stable”, the “% Moisture” value ([2]; 25° C., 0 day) was 0.42% and the “% Total impurity” value ([2]; 25° C., 0 day) was 0.44%. The Re-dissolution time s ([2]; 25° C., 0 day) was 160 s, the “% Moisture” value ([2]; 25° C., 1 month) was 1.79% and the “% Total impurity” value ([2]; 25° C., 1 month) was 0.51%. For the same compound, the Re-dissolution time s ([2]; 25° C., 1 month) was 154 s, the “% Moisture” value ([2]; 25° C., 2 months) was 1.97% and the “% Total impurity” value ([2]; 25° C., 2 months) was 0.61%. For the same compound, the Re-dissolution time s ([2]; 25° C., 2 months) was 114 s, the “% Moisture” value ([2]; 25° C., 3 months) was 2.19% and the “% Total impurity” value ([2]; 25° C., 3 months) was 0.81%. For the same compound, the Re-dissolution time s ([2]; 25° C., 3 months) was 174 s, the “% Moisture” value ([2]; 25° C., 6 months) was 2.62% and the “% Total impurity” value ([2]; 25° C., 6 months) was 1.21%. The Re-dissolution time s ([2]; 25° C., 6 months) was 128 s, the “% Moisture” value ([2]; 40° C., 0 day) was 1.2% and the “% Total impurity” value ([2]; 40° C., 0 day) was 0.33%. The Re-dissolution time s ([2]; 40° C., 0 day) was 148 s, the “% Moisture” value ([2]; 40° C., 5 day) was 1.0% and the “% Total impurity” value ([2]; 40° C., 5 day) was 0.48%. The Re-dissolution time s ([2]; 40° C., 5 day) was 139 s, the “% Moisture” value ([2]; 40° C., 10 day) was 1.2% and the “% Total impurity” value ([2]; 40° C., 10 day) was 0.54%. The Re-dissolution time s ([2]; 40° C., 10 day) was 118 s, the “% Moisture” value ([2]; 40° C., 30 day) was 1.8% and the “% Total impurity” value ([2]; 40° C., 30 day) was 0.69%. It also gave a Re-dissolution time s ([2]; 40° C., 30 day) of 135 s, a pH value ([2]; 25° C., 0 day) of 7.4 and a pH value ([2]; 25° C., 1 month) of 7.5. It also gave a pH value ([2]; 25° C., 2 months) of 7.2, a pH value ([2]; 25° C., 3 months) of 7.4 and a pH value ([2]; 25° C., 6 months) of 7.3. It also gave a pH value ([2]; 40° C., 0 day) of 7.4, a pH value ([2]; 40° C., 5 day) of 7.1 and a pH value ([2]; 40° C., 10 day) of 7.3. For the same compound, the pH value ([2]; 40° C., 30 day) was 7.4.
